Laboratory results taken from article PMC4495402.
Blank lines part the entries; values can stand above or below the binder they belong to.

Molecular target: Xenopus histone H3/H4 tetramer (Xenopus), P84233
Assay: SEC-MALS
Conditions: remark: other sources report otherwise

stoichiometry N: 1
B1: human Spt2 histone-binding domain 571–685 (hSpt2C), Q68D10 571-685 (domain or fragment)
chain: GPQRLPFPTGYKRQREYEEEDDDDDEYDSEMEDFIEDEGEPQEEISKHIREIFGYDRKKYKDESDYALRYMESSWKEQQKEEAKSLRLGMQEDLEEMRREEEEMQRRRAKKLKRR

stoichiometry N: 1
B2: SUMO-tagged hSpt2C(571–685), Q68D10 571-685 (domain or fragment)
chain: B1 chain
